In the assay the target is clotted plasma proteins. The assay is described as follows: binding to plasma clots; method not described, data not shown.

Where no end group is shown, it is not given here. [ ]: non-standard residue; d: D form. NMeE = CN[C@@H](CCC(=O)O)C(=O)O

On to CREKA [CREKA peptide (cys-arg-glu-lys-ala)], for which the Kd came to 6 µM.
The figure for CR[NMeE]KA [CR(NMe)EKA] is 2.5 µM.

A word on the Kd: it is the free concentration of one partner at which half of the binding sites on the other are occupied at equilibrium, for simple one-to-one binding. Low readings indicate higher affinity, high ones lower affinity.

For the origin of these results see patent US20110165064A1.
